Blank lines part the entries; values can stand above or below the binder they belong to.
B2: Pyrobaculum calidifontis crenactin (natural protein, UniProt A3MWN5 1-432, looked up)
chain: MGVISDAYRLKYTFGVDFGTSYVKYGPITLNEPKMVQTRGLFLRDLPESVKMRIPPDVLARGLVVGDEEVRKYLSSVRDVQRNLKYPLKDGVARRDDEEAWRVLKELARYTLAQFPVSDPEFAGWLVAVALSALAPDYMYKAIFDIYDELASEFKIYAVTILPQPLAVAIAENAVNCVIVEGGHGNIQVAPISFALIREGLVALNRGGAEANAITREILKDIGYSDIAREEYAVEVVKRAVGLVPRRLKEAIRAAKSDPDRFVTKVRLSPVVEVEIPREYAWTRFLIGEIVFDPNHEEIKSYIEQSRLRIENAVIGDVTLYGEMDVASAIITSLRNVSVEIQERVASQIILSGGAFSWRVPPGMEDVAADSVTRVKIALEEKSPALASKVEVRLVSEPQYSVWRGAVIYGYALPLSLEWSDTTREGWRFPRR
notes: codon-optimised gene in pOPIN-S; Forms double-stranded helical filaments with ATP and MgCl2; The construct used for co-expression with arcadin-2 is not described; also called PCC; source: E. coli C41(DE3), purified (Ni-NTA, elution by SUMO tag cleavage with SENP1, Sephacryl S300); also co-expressed with arcadin-2 and purified as a complex; not shown: His6, N-terminal, cleaved; SUMO, N-terminal, …

Assays:
[1] = target: B2; experiment: crystal structure; crenactin at 7 mg/ml mixed with arcadin-2 peptide at molar ratio 1 to 3; 0.31 M sodium acetate, 12.8% PEG 4000, 0.1 M sodium acetate pH 4.5; 1.6 Å; settings: both partners purified
[2] = target: the molecule itself; experiment: cryo-EM structure; crenactin 0.5-1 mg/ml in 50 mM NH4HCO3, 20 mM KCl, polymerised with 2 mM ATP and 4 mM MgCl2 for 30 min on ice; helical reconstruction in RELION 2.0
[3] = target: B2; experiment: SPR; crenactin immobilised by amide coupling on CM5 chip (~700 RU), Biacore T200, PBS-0.005% Tween 20, 20°C; arcadin-2 or arcadin-2ΔC in 1:2 dilution series from 2 µM; kinetic fits, Kd = koff/kon; settings: both partners purified

binding result [1]: binds
B1: arcadin-2 C-terminal peptide (residues 187-203) (peptide, UniProt A3MWN6 187-203, looked up)
peptide: RGGIGENEWVKILRSKR
notes: arcadin-2, Pyrobaculum calidifontis, NCBI WP_011850311.1, residues R187 to R203 (the last 17 amino acids); also called arcadin-2 peptide; C-peptide; source: synthetic peptide (Generon, U.K)

Binder: B2
binding result [2]: binds

Kd [3]: 31 nM
B3: Pyrobaculum calidifontis arcadin-2 (natural protein, UniProt A3MWN6 1-203, looked up)
chain: MDFPKVLLIRHFTEVLGMKYAGEGGEVLWFEEGLNRVAVGIYFTDLYEEAELYKRVGALMGLGASKVFLAVLPDALAFVDPRYFKANGVGLVVVDPAKGVDGVEVKIFARARPAAVEPLKIDAVKAALHEYLASELKRVEESLFEKVRRYVDQRVEEVKRALQAVEEAKRAAPPVQRAAAESAQEPRGGIGENEWVKILRSKR
notes: arcadin-2, Pyrobaculum calidifontis, NCBI WP_011850311.1; untagged, native protein from pHis17; The construct used for co-expression with crenactin is not described; also called full-length arcadin-2; source: E. coli C41(DE3), purified (heat step 60°C, ammonium sulphate precipitation, Sephacryl S300); also co-expressed with crenactin and purified as a complex

From article PMC5173319, “Crenactin forms actin-like double helical filaments regulated by arcadin-2” (eLife, 2016)
